Experimental data: patent US20260199507A1 (MULTITUDE THERAPEUTICS, published 2026)
Changes are numbered by the printed parent chain.

B1: Hu02 L1H1 (antibody, human IgG1, kappa, V domains shown)
VH: EVQLVESGGGLVQPGGSLRLSCAASGFTFTEYHMSWVRQAPGKGLEWVGFIRNRANGYTTEYAASVKGRFTISRDDSKNSLYLQMNSLKTEDTAVYYCARLTMVVAEFDYWGQGTLVTVSS
VL: DIQMTQSPSSLSASVGDRVTITCQASQDINKYLNWYQHKPGKGPKLLIYYTSTLQTGVPSRFSGSGSGTDFTFTVSNLQPEDIATYYCLQYDNLLTFGQGTKLEIKR
B2: Hu02 L1H3 (antibody, human IgG1, kappa, V domains shown)
VH: B1 VH with N56Q
VL: B1 VL
B3: Hu02 L1H4 (antibody, human IgG1, kappa, V domains shown)
VH: B1 VH with D76N, S87T, K89R
VL: B1 VL
B4: Hu02 L1H5 (antibody, human IgG1, kappa, V domains shown)
VH: B1 VH with G57A, D76N, S87T, K89R
VL: B1 VL
B5: Hu02 L1H6 (antibody, human IgG1, kappa, V domains shown)
VH: B1 VH with N56Q, D76N, S87T, K89R
VL: B1 VL
B6: Hu02 L2H1 (antibody, human IgG1, kappa, V domains shown)
VH: B1 VH
VL: B1 VL with D1A, D17E, Q24R
B7: Hu02 L2H2 (antibody, human IgG1, kappa, V domains shown)
VH: B1 VH with G57A
VL: B1 VL with D1A, D17E, Q24R
B8: Hu02 L2H3 (antibody, human IgG1, kappa, V domains shown)
VH: B1 VH with N56Q
VL: B1 VL with D1A, D17E, Q24R
B9: Hu02 L2H5 (antibody, human IgG1, kappa, V domains shown)
VH: B1 VH with G57A, D76N, S87T, K89R
VL: B1 VL with D1A, D17E, Q24R
B10: Hu02 L2H6 (antibody, human IgG1, kappa, V domains shown)
VH: B1 VH with N56Q, D76N, S87T, K89R
VL: B1 VL with D1A, D17E, Q24R
B11: Hu02-L1H2 (antibody, human IgG1, kappa, V domains shown)
VH: B1 VH with G57A
VL: B1 VL
B12: Ch02 (antibody, human IgG1, kappa, V domains shown)
VH: EVKLVESGGGLVQPGGSLRLSCATSGFTFTEYHMSWVRQPPGKALEWLGFIRNRANGYTTEYSASVKGRFTISRDNSQNILYLQMNTLRTEDSATYYCARLTMVVAEFDYWGQGTTLTVSS
VL: DIQMTQSPSSLSASLGGEVTITCKASQDINKYIAWYQHKPGKGPRLLIHYTSTLQPGIPSRFSGSGSGRDYSFSVSNLEPEDIATYYCLQYDNLLTFGAGTKLELKR
notes: also called chimeric antibody Ch02; Ch02 antibody
B13: Mu01 (antibody, V domains shown)
VH: QVQLQQSGAELVRPGSSVKISCKASGYTFSSYWMYWVKQRPGQGLEWIGQIYPGDGDSNYNENFKGKATLTADKSSSTAYMQLSSLTSEDSAVYFCTREGYGNRFAYWGQGTLVTVSA
VL: QIVLTQSPALMSASPGEKVTMTCSASSSVSYMYWYQQKPRSSPKPWINLTSNLASGVPARFSGRGSGTSYSLTISSMEAEDAATYYCQQWSYNPPTFGGGTKLEIK
notes: Murine hybridoma antibody purified from ascites; also called monoclonal antibody Mu01; antibody Mu01
B14: Hu01 L5H2 (antibody, human IgG1, kappa, V domains shown)
VH: QVQLVQSGAEVKRPGSSVKVSCKASGYTFSSYWMYWVRQAPGQGLEWIGQIYPGDGDSNYNENFQGRVTITADKSTSTAYMELSSLTSEDSAVYFCTREGYGNRFAYWGQGTLVTVSS
VL: EIVLTQSPALLSLSPGERATLSCSASSSVSYMYWYQQKPGQAPRLLIQLTSNLASGVPARFSGRGSGTDFTLTISSLEPEDFAVYYCQQWSYNPPTFGGGTKVEIKR
B15: Hu01 L3H2 (antibody, human IgG1, kappa, V domains shown)
VH: B14 VH
VL: B14 VL with L11M, G40R, Q41S, L45P, L46W, T71S, P79A, V84T
B16: Hu01 L5H1 (antibody, human IgG1, kappa, V domains shown)
VH: B14 VH with T87R, S91T, F95Y
VL: B14 VL
B17: Hu01-L3H1 (antibody, human IgG1, kappa, V domains shown)
VH: B14 VH with T87R, S91T, F95Y
VL: B14 VL with L11M, G40R, Q41S, L45P, L46W, T71S, P79A, V84T
notes: also called Hu01 antibody L3H1

Each binder was assayed against T1, CD142 (Tissue Factor) on BxPC3 human pancreatic cancer cells (human, UniProt P13726 33-295) (assay: flow cytometry on BxPC3 cells).
T1 construct: whole, on cells; also called TF
Method: Digested cells were centrifuged at 1000 rpm for 5 min and blocked with 10% goat serum (purchased from SenBeiJia Biological Technology Co., Ltd., Product No. SRJ-SE-GO012) for 30 min. Then Hu02 antibodies L1H1, L1H2, L1H3, L1H4, L1H5, L1H6, L2H1, L2H2, L2H3, L2H5, and L2H6 prepared in Example 5 were serially diluted 3 times with an initial concentration of 500 nM. After that, the Hu02 antibody was added to the cells and incubated for 1 h. After washing twice with PBS, FITC-labeled goat anti-human antibody (purchased from Sigma, product No. FS9512-2ML) was added at 1:500 and incubated for 1 h. The results were analyzed by flow cytometry (BD biosciences, product No. BD Accuri C6 Plus) after washing twice with PBS.

In order of falling EC50:
1. B8  25.2 nM
2. B2  19.7 nM
3. B12  19.2 nM
4. B7  18.3 nM
5. B6  18.1 nM
6. B11  13.2 nM
7. B1  11.6 nM
8. B5  10.2 nM
9. B4  9.48 nM
10. B9  8.12 nM
11. B10  6.54 nM
12. B3  6.39 nM

What follows are binders tested against T1, CD142 (Tissue Factor) on BxPC3 human … (assay: flow cytometry on BxPC3 cells, antibody at 20 ug/mL, FITC goat anti-mouse detection).
Method: Digested cells were centrifuged at 1000 rpm for 5 min and blocked with 10% goat serum (purchased from SenBeiJia Biological Technology Co., Ltd., Product No. SRJ-SE-GOO12) for 30 min. Then Mu01 and Mu02 antibodies respectively prepared in Example 4 and Example 5 were added at a final concentration of 20 μg/mL and incubated for 1 h. After washing with Phosphate buffer (PBS, PH 7.2-7.4) for 2 times, FITC-labeled goat anti-mouse antibody (purchased from Jackson ImmunoResearch, No. 115-545-003) was added at 1:500 and incubated for 1 hour. Analyzed the resulting product by flow cytometry after washing with PBS for 2 times.

B13: binds.

What follows are binders tested against T1, CD142 (Tissue Factor) on BxPC3 human … (assay: flow cytometry on BxPC3 cells, 3-fold dilutions from 500 nM, FITC goat anti-human detection).
Method: Digested cells were centrifuged at 1000 rpm for 5 min and blocked with 10% goat serum (purchased from SenBeiJia Biological Technology Co., Ltd., Product No. SRJ-SE-GO012) for 30 min. Then Hu01 antibodies L5H2, L5H1, L3H1, L3H2 prepared in Example 4 were diluted with a 3-fold gradient at the initial concentration of 500 nM. After that, the Hu01 antibody was added to the cells and incubated for 1 h. After washing twice with PBS, FITC-labeled goat anti-human antibody (purchased from Sigma, product No. FS9512-2ML) was added at 1:500 and incubated for 1 h. The results were analyzed by flow cytometry after washing twice with PBS.

B14: binds.
B15: binds.
B16: binds.
B17: binds.
